Reference: the Human Domainome abundance scans (Beltran et al. 2025)
± gives the uncertainty stated by the source.

B1: POU domain, class 2, transcription factor 3, residues 186 to 260; numbered along this chain, Q9UKI9 (parent)
chain: SDLEELEKFAKTFKQRRIKLGFTQGDVGLAMGKLYGNDFSQTTISRFEALNLSFKNMCKLKPLLEKWLNDAESSP

Variants of: B1
Test: abundance fitness (aPCA) (normalised: wild type 0, dead -1); higher = more abundant; growth selection in yeast, the domain comes from the species named
Settings: Homo sapiens

Point of comparison: SDLEELEKFAKTFKQRRIKLGFTQGDVGLAMGKLYGNDFSQTTISRFEALNLSFKNMCKLKPLKEKWLNDAESSP, abundance fitness -1.01 ± 0.14. Against it:
- SDLEELEKFAKTFKQRRIKLGFTQGDVGLAMGKLYGNDFSQTTISRFEALNLSFKNMCKLKPLPEKWLNDAESSP — within error, -0.802 ± 0.1
- SDLEELEKFAKTFKQRRIKLGFTQGDVGLAMGKLYGNDFSQTTISRFEALNLSFKNMCKLKPLCEKWLNDAESSP — higher, -0.148 ± 0.055
- SDLEELEKFAKTFKQRRIKLGFTQGDVGLAMGKLYGNDFSQTTISRFEALNLSFKNMCKLKPLGEKWLNDAESSP — higher, -0.784 ± 0.054
- SDLEELEKFAKTFKQRRIKLGFTQGDVGLAMGKLYGNDFSQTTISRFEALNLSFKNMCKLKPLSEKWLNDAESSP — higher, -0.743 ± 0.067
- SDLEELEKFAKTFKQRRIKLGFTQGDVGLAMGKLYGNDFSQTTISRFEALNLSFKNMCKLKPLFEKWLNDAESSP — higher, -0.135 ± 0.077
- SDLEELEKFAKTFKQRRIKLGFTQGDVGLAMGKLYGNDFSQTTISRFEALNLSFKNMCKLKPLWEKWLNDAESSP — within error, -0.981 ± 0.089
- SDLEELEKFAKTFKQRRIKLGFTQGDVGLAMGKLYGNDFSQTTISRFEALNLSFKNMCKLKPLREKWLNDAESSP — within error, -0.83 ± 0.071
- SDLEELEKFAKTFKQRRIKLGFTQGDVGLAMGKLYGNDFSQTTISRFEALNLSFKNMCKLKPLIEKWLNDAESSP — higher, -0.224 ± 0.063
- SDLEELEKFAKTFKQRRIKLGFTQGDVGLAMGKLYGNDFSQTTISRFEALNLSFKNMCKLKPLYEKWLNDAESSP — higher, -0.221 ± 0.073
- SDLEELEKFAKTFKQRRIKLGFTQGDVGLAMGKLYGNDFSQTTISRFEALNLSFKNMCKLKPLNEKWLNDAESSP — within error, -0.776 ± 0.36
- SDLEELEKFAKTFKQRRIKLGFTQGDVGLAMGKLYGNDFSQTTISRFEALNLSFKNMCKLKPLQEKWLNDAESSP — within error, -0.836 ± 0.12
- SDLEELEKFAKTFKQRRIKLGFTQGDVGLAMGKLYGNDFSQTTISRFEALNLSFKNMCKLKPLEEKWLNDAESSP — within error, -0.888 ± 0.11
- SDLEELEKFAKTFKQRRIKLGFTQGDVGLAMGKLYGNDFSQTTISRFEALNLSFKNMCKLKPLTEKWLNDAESSP — higher, -0.462 ± 0.084
- SDLEELEKFAKTFKQRRIKLGFTQGDVGLAMGKLYGNDFSQTTISRFEALNLSFKNMCKLKPLVEKWLNDAESSP — higher, -0.197 ± 0.036
- SDLEELEKFAKTFKQRRIKLGFTQGDVGLAMGKLYGNDFSQTTISRFEALNLSFKNMCKLKPLDEKWLNDAESSP — higher, -0.557 ± 0.16
- SDLEELEKFAKTFKQRRIKLGFTQGDVGLAMGKLYGNDFSQTTISRFEALNLSFKNMCKLKPLLIKWLNDAESSP — higher, 0.023 ± 0.13
- SDLEELEKFAKTFKQRRIKLGFTQGDVGLAMGKLYGNDFSQTTISRFEALNLSFKNMCKLKPLLDKWLNDAESSP — higher, -0.031 ± 0.061
- SDLEELEKFAKTFKQRRIKLGFTQGDVGLAMGKLYGNDFSQTTISRFEALNLSFKNMCKLKPLLCKWLNDAESSP — higher, -0.033 ± 0.064
- SDLEELEKFAKTFKQRRIKLGFTQGDVGLAMGKLYGNDFSQTTISRFEALNLSFKNMCKLKPLLFKWLNDAESSP — higher, -0.118 ± 0.059
- SDLEELEKFAKTFKQRRIKLGFTQGDVGLAMGKLYGNDFSQTTISRFEALNLSFKNMCKLKPLLHKWLNDAESSP — higher, -0.05 ± 0.32
- SDLEELEKFAKTFKQRRIKLGFTQGDVGLAMGKLYGNDFSQTTISRFEALNLSFKNMCKLKPLLAKWLNDAESSP — higher, -0.07 ± 0.033
- SDLEELEKFAKTFKQRRIKLGFTQGDVGLAMGKLYGNDFSQTTISRFEALNLSFKNMCKLKPLLKKWLNDAESSP — higher, 0.042 ± 0.057
- SDLEELEKFAKTFKQRRIKLGFTQGDVGLAMGKLYGNDFSQTTISRFEALNLSFKNMCKLKPLLLKWLNDAESSP — higher, -0.043 ± 0.033
- SDLEELEKFAKTFKQRRIKLGFTQGDVGLAMGKLYGNDFSQTTISRFEALNLSFKNMCKLKPYLEKWLNDAESSP — higher, -0.173 ± 0.11
- SDLEELEKFAKTFKQRRIKLGFTQGDVGLAMGKLYGNDFSQTTISRFEALNLSFKNMCKLKPQLEKWLNDAESSP — higher, -0.108 ± 0.055
- SDLEELEKFAKTFKQRRIKLGFTQGDVGLAMGKLYGNDFSQTTISRFEALNLSFKNMCKLKPILEKWLNDAESSP — higher, 0.072 ± 0.061
- SDLEELEKFAKTFKQRRIKLGFTQGDVGLAMGKLYGNDFSQTTISRFEALNLSFKNMCKLKPVLEKWLNDAESSP — higher, -0.032 ± 0.032
- SDLEELEKFAKTFKQRRIKLGFTQGDVGLAMGKLYGNDFSQTTISRFEALNLSFKNMCKLKPSLEKWLNDAESSP — higher, -0.055 ± 0.036
- SDLEELEKFAKTFKQRRIKLGFTQGDVGLAMGKLYGNDFSQTTISRFEALNLSFKNMCKLKPGLEKWLNDAESSP — higher, -0.06 ± 0.03
- SDLEELEKFAKTFKQRRIKLGFTQGDVGLAMGKLYGNDFSQTTISRFEALNLSFKNMCKLKPNLEKWLNDAESSP — higher, -0.026 ± 0.065
- SDLEELEKFAKTFKQRRIKLGFTQGDVGLAMGKLYGNDFSQTTISRFEALNLSFKNMCKLKPRLEKWLNDAESSP — higher, -0.022 ± 0.03
- SDLEELEKFAKTFKQRRIKLGFTQGDVGLAMGKLYGNDFSQTTISRFEALNLSFKNMCKLKPHLEKWLNDAESSP — higher, 0.011 ± 0.061
- SDLEELEKFAKTFKQRRIKLGFTQGDVGLAMGKLYGNDFSQTTISRFEALNLSFKNMCKLKPWLEKWLNDAESSP — higher, -0.07 ± 0.037
- SDLEELEKFAKTFKQRRIKLGFTQGDVGLAMGKLYGNDFSQTTISRFEALNLSFKNMCKLKPMLEKWLNDAESSP — higher, -0.027 ± 0.042
- SDLEELEKFAKTFKQRRIKLGFTQGDVGLAMGKLYGNDFSQTTISRFEALNLSFKNMCKLKPPLEKWLNDAESSP — higher, -0.092 ± 0.047
- SDLEELEKFAKTFKQRRIKLGFTQGDVGLAMGKLYGNDFSQTTISRFEALNLSFKNMCKLKPTLEKWLNDAESSP — higher, -0.059 ± 0.053
